This note sets out measurements from paper PMC10318062 (Nature Communications, 2023).

Numbering of substitutions follows the chain as printed.

B1: C002 (antibody, V domains shown)
VH: EVQLVESGGGVVQPGRSLRLSCAASGFTFSIYGMHWVRQAPGKGLEWVAVISYDGSNKYYADSVKGRFTISRDNSKNTLYLQMNSLRAEDTAVYYCAKEGRPSDIVVVVAFDYWGQGTLVTVSS
VL: not shown
B2: COVA2-28 (antibody, V domains shown)
VH: EVQLVESGGGVVQPGRSLRLSCAASGFTFSSYGMHWVRQAPGKGLEWVAVIWYDGSNKYYADSVKGRFTISRDNSKNTLYLQMDSLRAEDTAMYYCAKDKAPPCSSGWYYFDYWGQGTLVTVSS
VL: not shown
B3: BD-236 (antibody, V domains shown)
VH: EVQLVESGGGLIQPGGSLRLSCAASGITVSSNYMSWVRQAPGKGLEWVSVIYSGGSTDYADSVKGRFTISRDKSKNTLYLQMNSLRAEDTAVYYCARDLGEAGGMDVWGQGTTVTVSS
VL: AIQLTQSPSSLSASVGDRVTITCRASQGISSYLAWYQQKPGKAPKLLIYAASTLQSGVPSRFSGSGSGTDFTLTISSLQPEDFATYYCQQLNSYPPAFGGGTKVEIK
B4: BD-368-2 (antibody, V domains shown)
VH: EVQLLESGGGVVQPGGSLRLSCAASGFAFTTYAMNWVRQAPGRGLEWVSAISDGGGSAYYADSVKGRFTISRDNSKNTLYLQMNSLRAEDTAVYYCAKTRGRGLYDYVWGSKDYWGQGTLVTVSS
VL: B3 VL
B5: COVA1-07 (antibody, V domains shown)
VH: QVQLVESGAEVKKPGSSVKVSCKASGGTLSSYAITWVRQAPGQGLEWVGGIIPIFGTANYAQKFQGRVTITADESTSTAYMELSSLRSEDTAVYYCARVGAYDSSGYSNDYWGQGTLVTVSS
VL: DIQLTQSPATLSLSPGERATLSCRASQSVSSYLAWYQQKPGQAPRLLIYDASNRATGIPARFSGSGSGTDFTLTISSLEPEDFAVYYCQQRSNWPPRVTFGGGTKVEIK
B6: COVA2-14 (antibody, V domains shown)
VH: B5 VH with E6Q, L29F, T35I, V48M, A72T, G100R, A101Y, S108Y, N109E
VL: B5 VL with D1E, Q3V, K39E, R97M, V98Y, G102Q
B7: COVA2-18 (antibody, V domains shown)
VH: EVQLVQSGAEVKKPGSSVKVSCKASGGTFSSYAISWVRQAPGQGLEWMGGIIPIFGTTNYAQKFQGRVTITTDESTSTAYMELSSLRSEDTAVYYCARVYSYDSSGYYLEYWGQGTRVTVSS
VL: B5 VL with D1E, Q3V, R97S, V98I, G102Q, K105R, V106L
B8: C119 (antibody, V domains shown)
VH: QVQLVQSGAEVKKPGASVKVSCKASGYTFTSYYMHWVRQAPGQGLEWMGIINPSGGSTSYAQKLQGRVTMTRDTSTSTVYMELSSLRSEDTAVYYCARANHETTMDTYYYYYYMDVWGKGTTVTVSS
VL: QSALTQPASVSGSPGQSITISCTGTSSDVGGYKYVSWYQRHPGKAPKLMIYDVSNRPSGVSNRFSGSKSGNTASLTISGLQAEDEADYYCSSYTSSSTSVVFGGGTQLTVL
B9: C121 (antibody, V domains shown)
VH: not shown
VL: QSALTQPASVSGSPGQSITISCTGTSSDVGSYNLVSWYQQHPGKAPKLMIYEGSKRPSGVSNRFSGSKSGNTASLTISGLQAEDEADYYCCSYAGSSTLVFGGGTKLTVL
B10: COVA2-39 (antibody, V domains shown)
VH: QVQLVETGGGLIQPGGSLRLSCAASGFTVSSNYMSWVRQAPGKGLEWVSVIYTGGTTYYADSVKGRFTISRDNSKNTLYLQMNSLRAEDTAVYYCARAHVDTAMVESGAFDIWGQGTRVTVSS
VL: B9 VL with G53V, S54T, L99W
B11: CV07-270 (antibody, V domains shown)
VH: QVQLVESGGGLVKPGGSLRLSCAASGFTFSDYYMTWIRQAPGKGLEWVSYISSSGSTIYYADSVKGRFTISRDNAKNSLYLQMNSLRAEDTAVYYCARARGSSGWYRIGTRWGNWFDPWGQGTLVTVSS
VL: B9 VL with S31G, L34Y, G53V, K55N, C91S, A94T, G95S, T98N, L99V, K106M
B12: C144 (antibody, V domains shown)
VH: EVQLVESGGGLIQPGGSLRLSCAASGFTVSNNYMSWVRQAPGKGLEWVSVIYSGGSTYYADSVKGRFTISRDKSKNTLYLQMNRLRAEDTAVYYCAREGEVEGYNDFWSGYSRDRYYFDYWGQGTLVTVSS
VL: QSALTQPASVSGSPGQSITISCTGTSSDVGGYNYVSWYQQHPGKAPKLMIYDVSNRPSGVSNRFSGSKSGNTASLTISGLQAEDEADYYCSSYTSSSTRVFGTGTKVTVL
B13: BD-629 (antibody, V domains shown)
VH: EVQLVESGGGLIQPGGSLRLSCAASEFIVSRNYMSWVRQAPGKGLEWVSVIYSGGSTYYADSVKGRFTISRDNSKNTLNLQMNSLRAEDTAVYYCARDYGDYYFDYWGQGTLVTVSS
VL: EIVLTQSPGTLSLSPGERATLSCRASQGVSSFLAWYQQKPGQAPRLLIHGASSRATGIPDRFSGSGSGTDFTLTITRLEPEDFAVYYCQQYGSSPRTFGQGTKVEIK
B14: CC12.3 (antibody, V domains shown)
VH: B13 VH with E1Q, E26G, I28T, R31S, Y58F, N76S, N79Y, A87V, Y99F, Y102F
VL: not shown
B15: COVA2-43 (antibody, V domains shown)
VH: QVQLVQPGAEVKKPGASVKVSCKASGYTFTSYGISWVRQAPGQGLEWMGWISAYNGDTNYAQKLQGRVTMTTDTSTSTAYMELRSLKSDDTAVYYCARFDYGYPYSSWSVLSIDYWGQGTLVTVSS
VL: DIVMTQSPSSLSASVGDRVTITCRASQGIRNDLGWYQQKPGKAPKRLIYAASSLQSGVPSRFSGSGSGTEFTLTISSLQPEDFATYYCLQHNSYPLTFGGGTKLEIK
B16: C110 (antibody, V domains shown)
VH: QVQLQQSGAEVKKPGESLKISCKGSGYSFTSYWIGWVRQMPGKGLEWMGIIYPGDSDTRYSPSFQGQVTISADKSISTAYMQWSSLKASDTAMYYCARSFRDDPRIAVAGPADAFDIWGQGTMVTVSS
VL: DIQMTQSPSTLSASVGDRVTITCRASQSISYWLAWYQQKPGKAPKLLIYQASSLESGVPSRFSGSESGTEFTLTISSLQPDDFATYYCQQYNSYPYTFGQGTKLEIK
B17: COVA3-08 (antibody, V domains shown)
VH: EVQLVESGPGLVKPSETLSLTCTVSGGSISSYYWSWIRQPPGKGLEWIGYIYYSGSTNYNPSLKSRVTISVDTSKNQFSLRLSSVTAADTAVYYCARGPAATYYYYMDVWGKGTMVTVSS
VL: not shown
B18: COVA2-10 (antibody, V domains shown)
VH: EVQLLESGGGLVQPGGSLKLSCAASGFTFSSYAMSWVRQAPGKGLEWVSAISGSGSNTYYADSVKGRFTISRDNSKNTLYLQMNSLRAEDTAVYYCAKGLRGQQLVIPTEYFQHWGQGTLVTVSS
VL: not shown
B19: C105 (antibody, V domains shown)
VH: QVQLVESGGGLIQPGGSLRLSCAASGFTVSSNYMSWVRQAPGKGLEWVSVIYSGGSTYYADSVKGRFTISRDNSKNTLYLQMNSLRAEDTAVYYCARGEGWELPYDYWGQGTLVTVSS
VL: QSALTQPPSGSGSPGQSVTISCTGTSSDVGGYKYVSWYQQHPGKAPKLMIYEVSKRPSGVPDRFSGSKSGNTASLTVSGLQAEDEADYYCSSYEGSNNFVVFGGGTKLTVL
B20: COVA1-18 (antibody, V domains shown)
VH: B19 VH with Q1E, I12V, G98V, G100W, W101A, E102A, L103A, P104G, Y105T, D106F
VL: QSALTQEPSLTVSPGGTVTLTCGSSTGAVTSGHYPYWFQQKPGQAPRTLIYDTSNKRSWTPARFSGSLLGGKAALTLSGAQPEDEAEYYCLLSYSGVWVFGGGTKLTVL
B21: BD-604 (antibody, V domains shown)
VH: EVQLVESGGGLIQPGGSLRLSCAASGIIVSSNYMTWVRQAPGKGLEWVSVIYSGGSTFYADSVKGRFTISRDNSKNTLYLQMSSLRAEDTAVYYCARDLGPYGMDVWGQGTTVTVSS
VL: DIQLTQSPSFLSASVGDRVTITCRASQGISSDLAWYQQKPGKAPNLLIYAASTLQSGVPSRFSGSGSGTEFTLTISSLQPEDFATYYCQQLNSDLYTFGQGTKLEIK
B22: CC12.1 (antibody, V domains shown)
VH: B21 VH with I27L, I28T, T35S, S83N, G100D, P101V, M104L
VL: DIVMTQSPSFLSASVGDRVTITCRASQGISSYLAWYQQKPGKAPKLLIYAASTLQSGVPSRFSGSGSGTEFTLTISSLQPEDFATYYCQQLNSYPPKFTFGPGTKVEIK
B23: COVA2-34 (antibody, V domains shown)
VH: QVQLVESGGGVVQPGRSLRLSCAASGFTFSSYAMHWVRQAPGKGLEWVAVISYDGSNKYYADSVKGRFTISRDNSKNTLYLQMNSLRAEDTAVYYCARSASGSYYGAFDYWGQGTLVTVSS
VL: QTVVTQPASVSGSPGQSITISCTGTSSDVGGYNYVSWYQQHPGKAPKLMIYDVSNRPSGVSNRFSGSKSGNTASLTISGLQAEDEADYYCSSYTSSSTLGLYVFGTGTKVTVL
B24: COVA2-41 (antibody, V domains shown)
VH: EVQLVESGGGLVKPGGSLRLSCSASGFTFSNYNMDWVRQAPGKGLEWVSSISSSSSYIYLADSVKGRFTISRDNAKNSLYLQMNSLRAEDTAVYYCARVQKDIVVVPVALADYYYYGMDVWGQGTTVTVSS
VL: DIVMTQSPATLSVSPGERATLSCRASQSVSSNLAWYQQKPGQAPRLLIYGASTRATGIPARFSGSGSGTEFTLTISSLQPEDFAVYYCQQCYNWPPWTFGQGTRVEFK

This assay has as its target SARS-CoV-2 hexaproline stabilized pre-fusion spike glycoprotein (S6P) (SARS-CoV-2, ancestral (Wuhan-Hu-1 …, UniProt P0DTC2, stabilised)).
B1: the binding result is listed as “binds”.

Take B2: the binding result is given as “binds”.

For the molecule B3, the binding result is “binds”.

As to B4, the binding result is “binds”.

Consider B5, for which the binding result is given as “binds”.

For B6, the binding result is “binds”.

Regarding B7, the binding result is “binds”.

Turning to B8, the binding result is “binds”.

As for B9, the binding result was “binds”.

Regarding B10, the binding result is “binds”.

With B11, the binding result is “binds”.

Consider B12, for which the binding result is “binds”.

For the molecule B13, the binding result is reported as “binds”.

In the case of B14, the binding result is listed as “binds”.

As for B15, the binding result is on record as “binds”.

Consider B16, for which the binding result was “binds”.

On to B17, for which the binding result was “binds”.

Consider B18, for which the binding result is listed as “binds”.

Turning to B19, the binding result is “binds”.

Regarding B20, the binding result was “binds”.

Consider B21, for which the binding result was “binds”.

Turning to B22, the binding result was “binds”.

B23: the binding result is reported as “binds”.

For B24, the binding result is on record as “binds”.
